Experimental data: paper PMC9658990

target: T1, HMW-uPA (high molecular weight urokinase), biotinylated for FLAA (human, UniProt P00749;P00749 21-177;179-431); test: FLAA (OliGreen); BPs-T: 50 mM Bis-Tris/HCl pH 6.5, 110 mM NaCl, 5 mM MgCl2, 1 mM CaCl2, 1 mM KCl (printed KCl2), 0.05% Tween 20, 23 °C

Binder	binding result
CCAGCGGGGGTGAGAGATCTGTCAGTACGAGCTGGGTTTGCG (ssDNA) [Ex-S2]	binds
CAAGCGGGGGTGAGAGATCTGTCAGTACGAGCTGGGCTTGCG (ssDNA) [Ex-S37]	binds
CAAGCGGGGGTTAGAGATCTGTCAGTACGAGCTGGGTTTGCG (ssDNA) [Ex-S12]	binds

target: T1, HMW-uPA (high molecular weight …); test: as above; remark: another data set of the same source

Binder	binding signal
TAAGCGGGGGTGAGAGATCTGTCAGTACGAGCTGGGTTTGCG (ssDNA) [Ex-S1]	36 % signal reduction vs uPAapt-02-FR
CAAGCGGGGGTGATAGATCTGTCAGTACGAGCTGGGTTTGCG (ssDNA) [Ex-S14]	91 % signal reduction vs uPAapt-02-FR
CAAGCGGGGGTGAGAGATCTGCCAGTACGAGCTGGGTTTGCG (ssDNA) [Ex-S22]	99 % signal reduction vs uPAapt-02-FR
CAAGCGGGGGCGAGAGATCTGTCAGTACGAGCTGGGTTTGCG (ssDNA) [Ex-S11]	91 % signal reduction vs uPAapt-02-FR
CAAGCGGGGGTGAGAGACCTGTCAGTACGAGCTGGGTTTGCG (ssDNA) [Ex-S18]	94 % signal reduction vs uPAapt-02-FR
CACGCGGGGGTGAGAGATCTGTCAGTACGAGCTGGGTTTGCG (ssDNA) [Ex-S3]	18 % signal reduction vs uPAapt-02-FR
CAAGCGGTGGTGAGAGATCTGTCAGTACGAGCTGGGTTTGCG (ssDNA) [Ex-S8]	94 % signal reduction vs uPAapt-02-FR
CAAGCGGGGGTGAGAGATCTGTCAGTACGAGCCGGGTTTGCG (ssDNA) [Ex-S33]	82 % signal reduction vs uPAapt-02-FR
CAAGCGGGGGTGAGAGATCTGTCAGTACGAGCTGTGTTTGCG (ssDNA) [Ex-S35]	27 % signal reduction vs uPAapt-02-FR
CAAGCGGGGGTGAGAGATCTGTCAGTCCGAGCTGGGTTTGCG (ssDNA) [Ex-S27]	100 % signal reduction vs uPAapt-02-FR
CAAGCGGGGGTGAGAGATCTGTCAGTACGAGCTTGGTTTGCG (ssDNA) [Ex-S34]	0 % signal reduction vs uPAapt-02-FR
CAAGCGGGGGTGAGAGATCTGTCAGTACGAGCTGGTTTTGCG (ssDNA) [Ex-S36]	11 % signal reduction vs uPAapt-02-FR
CAAGCGGGGGTGAGATATCTGTCAGTACGAGCTGGGTTTGCG (ssDNA) [Ex-S16]	72 % signal reduction vs uPAapt-02-FR
CAAGCTGGGGTGAGAGATCTGTCAGTACGAGCTGGGTTTGCG (ssDNA) [Ex-S6]	50 % signal reduction vs uPAapt-02-FR
CAAGCGGGGGTGAGAGCTCTGTCAGTACGAGCTGGGTTTGCG (ssDNA) [Ex-S17]	16 % signal reduction vs uPAapt-02-FR
CAAGCGTGGGTGAGAGATCTGTCAGTACGAGCTGGGTTTGCG (ssDNA) [Ex-S7]	34 % signal reduction vs uPAapt-02-FR
CAAGCGGGGGTGAGAGATCTGTCAGCACGAGCTGGGTTTGCG (ssDNA) [Ex-S26]	89 % signal reduction vs uPAapt-02-FR
CAAGCGGGGGTGAGAGATCTGTCAGTACGAGTTGGGTTTGCG (ssDNA) [Ex-S32]	63 % signal reduction vs uPAapt-02-FR
CAAGCGGGGGTGAGAGATCTGTCAGTACGAGCTGGGTTTTCG (ssDNA) [Ex-S40]	3 % signal reduction vs uPAapt-02-FR
CAAGCGGGGGTGAGAGATCTGTCAGTACGAGCTGGGTTTGTG (ssDNA) [Ex-S41]	3 % signal reduction vs uPAapt-02-FR

Binder	binding signal
CAATCGGGGGTGAGAGATCTGTCAGTACGAGCTGGGTTTGCG (ssDNA) [Ex-S4]	85 % signal reduction vs uPAapt-02-FR
CAAGCGGGGGTGAGAGATTTGTCAGTACGAGCTGGGTTTGCG (ssDNA) [Ex-S19]	0 % signal reduction vs uPAapt-02-FR
CAAGCGGGGGTGCGAGATCTGTCAGTACGAGCTGGGTTTGCG (ssDNA) [Ex-S13]	97 % signal reduction vs uPAapt-02-FR
CAAGCGGGGGTGAGAGATCTGTCATTACGAGCTGGGTTTGCG (ssDNA) [Ex-S25]	99 % signal reduction vs uPAapt-02-FR
CAAGCGGGGGTGAGAGATCTGTCCGTACGAGCTGGGTTTGCG (ssDNA) [Ex-S24]	98 % signal reduction vs uPAapt-02-FR
CAAGCGGGGGTGAGAGATCTGTCAGTACGAGCTGGGTCTGCG (ssDNA) [Ex-S38]	53 % signal reduction vs uPAapt-02-FR
CAAGCGGGGTTGAGAGATCTGTCAGTACGAGCTGGGTTTGCG (ssDNA) [Ex-S10]	78 % signal reduction vs uPAapt-02-FR
CAAGCGGGGGTGAGAGATCTTTCAGTACGAGCTGGGTTTGCG (ssDNA) [Ex-S21]	92 % signal reduction vs uPAapt-02-FR
CAAGCGGGGGTGAGAGATCTGTCAGTACGAGCTGGGTTTGCT (ssDNA) [Ex-S42]	17 % signal reduction vs uPAapt-02-FR
CAAGTGGGGGTGAGAGATCTGTCAGTACGAGCTGGGTTTGCG (ssDNA) [Ex-S5]	56 % signal reduction vs uPAapt-02-FR
CAAGCGGGGGTGAGAGATCCGTCAGTACGAGCTGGGTTTGCG (ssDNA) [Ex-S20]	95 % signal reduction vs uPAapt-02-FR
CAAGCGGGGGTGAGAGATCTGTCAGTACGAGCTGGGTTCGCG (ssDNA) [Ex-S39]	65 % signal reduction vs uPAapt-02-FR
CAAGCGGGGGTGAGAGATCTGTTAGTACGAGCTGGGTTTGCG (ssDNA) [Ex-S23]	13 % signal reduction vs uPAapt-02-FR
CAAGCGGGGGTGAGAGATCTGTCAGTACTAGCTGGGTTTGCG (ssDNA) [Ex-S29]	47 % signal reduction vs uPAapt-02-FR
CAAGCGGGTGTGAGAGATCTGTCAGTACGAGCTGGGTTTGCG (ssDNA) [Ex-S9]	65 % signal reduction vs uPAapt-02-FR
CAAGCGGGGGTGAGAGATCTGTCAGTATGAGCTGGGTTTGCG (ssDNA) [Ex-S28]	95 % signal reduction vs uPAapt-02-FR
CAAGCGGGGGTGAGAGATCTGTCAGTACGATCTGGGTTTGCG (ssDNA) [Ex-S31]	100 % signal reduction vs uPAapt-02-FR
CAAGCGGGGGTGAGAGATCTGTCAGTACGCGCTGGGTTTGCG (ssDNA) [Ex-S30]	89 % signal reduction vs uPAapt-02-FR
CAAGCGGGGGTGAGCGATCTGTCAGTACGAGCTGGGTTTGCG (ssDNA) [Ex-S15]	89 % signal reduction vs uPAapt-02-FR
